Measured values published in patent US20110300138A1 (published 2011).

Experiments:
[1] = target: TSH receptor (TSHR), full length human, coated on tubes (human) (UniProt P16473); experiment: inhibition of 125I-TSH binding to TSHR coated tubes; 100 µg/mL, diluted in assay buffer
[2] = target: thyroid stimulating hormone receptor (TSHR), full length human TSHR (human) (UniProt P16473); experiment: TSH-biotin competition ELISA, TSHR coated wells; negative control, 10 µg/mL in assay buffer
[3] = target: TSHR (thyroid stimulating hormone receptor), full length human (human) (UniProt P16473); experiment: negative control; competitor ^125I-K1-70 IgG, TSHR coated tubes; 0.01 µg/mL in assay buffer
[4] = target: TSHR (full length) coated on tubes (human) (UniProt P16473); experiment: inhibition of 125I-K1-18 Fab (competitor) binding to TSHR coated tubes; negative control 1 µg/mL in assay buffer
[5] = target: human TSH receptor (full length) coated on ELISA plate wells (human) (UniProt P16473); experiment: TSH-biotin binding inhibition ELISA, TSHR coated wells; 10 µg/mL in assay buffer; negative control MAb
[6] = target: TSH receptor (full length human TSHR) (human) (UniProt P16473); experiment: competition ELISA: inhibition of M22 Fab-peroxidase (competitor) binding to TSHR coated wells; negative control at 0.1 µg/mL diluted in assay buffer
[7] = target: human thyroid stimulating hormone receptor (TSHR), full length (human) (UniProt P16473); experiment: 125I-K1-70 Fab (competitor) binding to TSHR coated tubes; negative control MAb 1 µg/mL in HBD serum
[8] = target: TSHR (thyroid stimulating hormone receptor), full length human (human) (UniProt P16473); experiment: competitor ^125I-K1-70 IgG, TSHR coated tubes; 0.01 µg/mL in assay buffer
[9] = target: TSHR (full length) coated on tubes (human) (UniProt P16473); experiment: inhibition of 125I-K1-18 Fab (competitor) binding to TSHR coated tubes; test sample 100 µg/mL in HBD serum
[10] = target: TSH receptor (TSHR), full length human, coated on tubes (human) (UniProt P16473); experiment: inhibition of 125I-TSH binding to TSHR coated tubes; 0.003 µg/mL, diluted in assay buffer
[11] = target: TSHR with Arg109 mutated to Ala, expressed in CHO cells (human) (UniProt P16473); experiment: cell-based or functional assay
[12] = target: wild type TSHR (human TSH receptor) expressed in CHO cells (human) (UniProt P16473); experiment: cell-based or functional assay
[13] = target: wild type TSHR expressed in CHO cells (human) (UniProt P16473); experiment: cell-based or functional assay
[14] = target: TSH receptor (TSHR), full length human, coated on tubes (human) (UniProt P16473); experiment: inhibition of 125I-TSH binding to TSHR coated tubes; 0.1 µg/mL, diluted in HBD serum pool
[15] = target: thyroid stimulating hormone receptor (full length human TSHR) (human) (UniProt P16473); experiment: ELISA, inhibition of TSH-biotin binding to TSHR coated wells; 0.01 µg/mL, diluted in assay buffer
[16] = target: TSH receptor (TSHR) coated on tubes (human) (UniProt P16473); experiment: inhibition of 125I-K1-70 IgG binding to TSHR coated tubes; sample 100 µg/mL in HBD serum pool
[17] = target: TSH receptor (TSHR), full length human, coated on tubes (human) (UniProt P16473); experiment: inhibition of 125I-K1-18 IgG (competitor) binding to TSHR coated tubes; test sample at 0.1 µg/mL in assay buffer
[18] = target: TSH receptor (TSHR), full length human, coated on tubes (human) (UniProt P16473); experiment: inhibition of 125I-K1-18 IgG (competitor) binding to TSHR coated tubes; test sample at 0.01 µg/mL in HBD serum pool
[19] = target: human thyroid stimulating hormone receptor (TSHR), full length (human) (UniProt P16473); experiment: 125I-K1-18 Fab competition, TSHR coated tubes; 0.01 µg/mL in HBD
[20] = target: thyroid stimulating hormone receptor (full length human TSHR) (human) (UniProt P16473); experiment: ELISA, inhibition of TSH-biotin binding to TSHR coated wells; 0.1 µg/mL, diluted in assay buffer
[21] = target: thyroid stimulating hormone receptor (full length human TSHR) (human) (UniProt P16473); experiment: ELISA, inhibition of TSH-biotin binding to TSHR coated wells; 10 µg/mL, diluted in assay buffer
[22] = target: human TSH receptor (full length) coated on ELISA plate wells (human) (UniProt P16473); experiment: TSH-biotin binding inhibition ELISA, TSHR coated wells; 10 µg/mL in assay buffer + 100 µg/mL 5B3 IgG
[23] = target: TSH receptor (TSHR), full length human, coated on tubes (human) (UniProt P16473); experiment: inhibition of 125I-TSH binding to TSHR coated tubes; 0.001 µg/mL, diluted in HBD serum pool
[24] = target: thyroid stimulating hormone receptor (full length human TSHR) (human) (UniProt P16473); experiment: ELISA: inhibition of M22 Fab-peroxidase (competitor) binding to TSHR coated wells; 100 µg/mL, diluted in HBD serum pool
[25] = target: human TSH receptor (full length) coated on ELISA plate wells (human) (UniProt P16473); experiment: TSH-biotin binding inhibition ELISA, TSHR coated wells; 1 µg/mL in assay buffer + 100 µg/mL 5B3 IgG

5B3 IgG (antibody)
Inhibition of binding (%) [1]: 22.4% | Inhibition of binding (%) [2]: -8.4% | Inhibition of binding (%) [3]: -3.6% | Inhibition of binding (%) [4]: -0.9% | % inhibition of TSH-biotin binding [5]: 0.9% | Inhibition of binding (%) [6]: 1.4% | Inhibition of binding (%) [7]: -7.8%

9D33 IgG (antibody)
Inhibition of binding (%) [8]: 9.4% | Inhibition of binding (%) [9]: 77.3%

M22 IgG (antibody)
Inhibition of binding (%) [10]: -1.5%

TSH (ligand)
Cyclic AMP produced, mutated TSHR, TSH 0.01 ng/mL [11]: 3.15 pmol/mL | Cyclic AMP produced, mutated TSHR, TSH 0.03 ng/mL [11]: 4.92 pmol/mL | Cyclic AMP produced, mutated TSHR, TSH 0.1 ng/mL [11]: 8.39 pmol/mL | Cyclic AMP produced, mutated TSHR, TSH 0.3 ng/mL [11]: 39.2 pmol/mL | Cyclic AMP produced, mutated TSHR, TSH 1 ng/mL [11]: 43.8 pmol/mL | Cyclic AMP produced, mutated TSHR, TSH 3 ng/mL [11]: 55.2 pmol/mL | Mutated/Wild type (%) of cyclic AMP produced, TSH 0.01 ng/mL [11]: 115% | Mutated/Wild type (%) of cyclic AMP produced, TSH 0.03 ng/mL [11]: 116% | Mutated/Wild type (%) of cyclic AMP produced, TSH 0.1 ng/mL [11]: 89% | Mutated/Wild type (%) of cyclic AMP produced, TSH 0.3 ng/mL [11]: 99% | Mutated/Wild type (%) of cyclic AMP produced, TSH 1 ng/mL [11]: 72% | Mutated/wild type (%) of cyclic AMP produced; TSH 3 ng/mL [11]: 78% | Cyclic AMP produced, wild type TSHR, TSH 0.01 ng/mL [12]: 2.74 pmol/mL | Cyclic AMP produced, wild type TSHR, TSH 0.03 ng/mL [12]: 4.24 pmol/mL | Cyclic AMP produced, wild type TSHR, TSH 0.1 ng/mL [12]: 9.39 pmol/mL | Cyclic AMP produced, wild type TSHR, TSH 0.3 ng/mL [12]: 39.6 pmol/mL | Cyclic AMP produced, wild type TSHR, TSH 1 ng/mL [12]: 61.2 pmol/mL | Cyclic AMP produced, wild type TSHR, TSH 3 ng/mL [12]: 70.6 pmol/mL | Cyclic AMP produced, TSH 0.01 ng/mL, wild type TSHR [13]: 2.5 pmol/mL | Cyclic AMP produced, TSH 0.03 ng/mL, wild type TSHR [13]: 4.29 pmol/mL | Cyclic AMP produced, TSH 0.1 ng/mL, wild type TSHR [13]: 10.6 pmol/mL | Cyclic AMP produced, TSH 0.3 ng/mL, wild type TSHR [13]: 28.9 pmol/mL | Cyclic AMP produced, TSH 1 ng/mL, wild type TSHR [13]: 52.5 pmol/mL | Cyclic AMP produced, TSH 3 ng/mL, wild type TSHR [13]: 61.1 pmol/mL

B1: 5C9 IgG (antibody, from another filing, V domains shown)
VH: EVQLVESGGGLIQPGGSLRLSCAASGFTVSSNYMSWVRQAPGKGLEWVSVTYSGGSTSYADSVKGRFTISRDNSKNTLYLQMNSLRAEDTAVYYCARGGRYCSSISCYARSGCDYWGQGTLVTVSS
VL: AIQMTQSPSSLSASVGDRVTITCRASQSISNYLNWYQQKPGKAPKLLIYAASSLQSGVPSRFSGSGSGTDFTLTISSLQPEDFATYYCQQSYSSPSTTFGQGTKLEIK
Inhibition of binding (%) [14]: 7% | Inhibition of binding (%) [15]: 7.5% | Inhibition of binding (%) [16]: 68.5% | Inhibition of binding (%) [17]: 33.4% | Inhibition of binding (%) [18]: -1.8% | Inhibition of binding (%) [19]: 5.7% | Inhibition of binding (%) [20]: 26.1% | Inhibition of binding (%) [21]: 37.8% | % inhibition of TSH-biotin binding [22]: 63.9% | Inhibition of binding (%) [23]: -8% | Inhibition of binding (%) [24]: 19.6% | % inhibition of TSH-biotin binding [25]: 46.7%
